Source: patent publication US20070134249A1 (GENITOPE, published 2007)

Key:
Test in all cases: ELISA
Design in all cases: key: 0 = <0.5 OD, 1 = 0.5-1.0 OD, 4 = 1-4 OD
610 = target: T1, 610
T1 construct: H3-23 K4-1; also called PIN610
Text: (§1) Before specificity screening, all of the clonal immunogen-positive hybridoma supernatants were re-screened on the immunogen, a non-family member Id protein, and KLH, if animals were immunized with Id protein that has been conjugated KLH. As described above, this screen identifies HC-specific clones but not mAbs against the light chain constant region. Clones identified positive to the immunogen and KLH were […]. Those found positive to the immunogen but not to the non-family member Id protein or KLH were tittered on the immunogen. In addition to normalizing for different binding affinities and concentrations, each hybridoma supernatant was titered on the fully human form of the Id protein used as the immunogen(s) for the V regions. The titer or dilution resulting in an ELISA absorbance of 2.5 to 3 OD after 30 min. incubation time was then used. Hybridoma specificity was determined by screening against available Id proteins expressing the same HV and KV or LV as well as different HV, KV and LV. The final ELISA results are expressed as follows: 0 (<0.5 OD), 1 (0.5-1.0 OD), or 4 (1-4 OD). Positive hybridoma supernatants are categorized according to specificity: anti-Id, anti-constant region (HC, KC or LC), or V region (HV, KV, LV family or family member).
(§2) In general, the fully human Id protein or proteins containing the immunogen V regions were coated onto 96-well ELISA plates at 2.5-5 ug/mL in carbonate buffer pH 9.6 and incubated at 4° C. for up to 14 days. On the day of the ELISA, plates were brought to RT and blocked with Tris-Tween-20, pH 7.6 for 15-60 min. at RT. Following a NaCl and Triton X-100 wash, diluted hybridoma cell culture supernatants were incubated overnight at 4° C. Hybridoma supernatant dilutions ranged from 1:2 to 1:25 and were prepared in PBS with 5% BSA. Plates were washed and incubated with HRP-conjugated goat anti-mouse IgG-specific detecting antibody. A chromogenic substrate (TMB) was used to measure the amount of mouse antibody bound to each well. The reaction was stopped at or before 30 minutes with IN H2SO4 and plates were read immediately. Absorbency readings at 450 nm ranging between 0-4 OD and using Molecular Devices plate reader and SOFTMAX PRO software.

912 = target: T2, 912
T2 construct: H3-23 K4-1; also called PIN912
Text: as §1, §2

192 = target: T3, 192
T3 construct: H5-51 K4-1; also called PIN192
Text: as §1, §2

786 = target: T4, 786
T4 construct: H3-7 K3-15; also called PIN786
Text: as §1, §2

987 = target: T5, 987
T5 construct: H3-23 K4-1; also called PIN987
Text: as §1, §2

952 = target: T6, 952
T6 construct: H3-66 K4-1; also called PIN952
Text: as §1, §2

112 = target: T7, 112
T7 construct: H4-39 K4-1; also called PIN112
Text: as §1, §2

grade 610: 4
grade 912: 4
grade 192: 4
grade 786: 4
grade 987: 4
grade 952: 4
grade 112: 4
B1: mAb clone 12C3 (antibody, V domains shown)
VH: EVKLVESGGGLVQPGGSLSLSCAASGFTYTDYYMNWVRQPPGKALEWLALIRNKANGYTTEYSASLKGRFTISRDNSQSILYLQMNALRAEDSATYYCVRENINYYFDYWGQGTTLTVSS
VL: DIVLTQSPASLAVSLGQRATISCRASESVEYFGASLMQWYQQKSGQPPKLLIRAATNVESGVPARFSGSGSGTDFSLNIHPVEEDDIAMYFCQQSRKVPWTFGGGTKLEIKR
notes: Mouse hybridoma mAb, fusions 20/21 (PIN628 V regions)
